Experimental data taken from patent US20200087372A1 (ZEALAND PHARMA A S, published 2020).

Key:
Experiment in all cases: cell-based or functional assay
[1] = molecular target: T1, endogenous GLP-1 receptor of a murine insulinoma cell line (murine, UniProt O35659 22-463)
T1 sequence (looked up): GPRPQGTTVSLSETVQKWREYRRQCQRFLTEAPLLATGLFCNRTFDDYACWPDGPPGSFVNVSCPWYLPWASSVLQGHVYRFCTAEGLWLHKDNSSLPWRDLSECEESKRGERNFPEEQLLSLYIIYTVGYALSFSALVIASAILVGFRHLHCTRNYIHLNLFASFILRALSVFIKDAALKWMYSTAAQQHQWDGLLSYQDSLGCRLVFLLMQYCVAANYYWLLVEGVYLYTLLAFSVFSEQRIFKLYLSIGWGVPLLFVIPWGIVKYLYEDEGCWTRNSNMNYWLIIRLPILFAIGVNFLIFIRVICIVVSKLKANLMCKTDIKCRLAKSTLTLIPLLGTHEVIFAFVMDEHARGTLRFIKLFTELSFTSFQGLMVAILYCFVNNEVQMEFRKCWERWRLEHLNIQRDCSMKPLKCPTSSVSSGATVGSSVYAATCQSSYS

[2] = molecular target: endogenous glucagon receptor of primary rat hepatocytes (rat, UniProt P30082 27-485)
[3] = molecular target: human glucagon receptor (Glucagon-R) (human, UniProt P47871 26-477)
[4] = molecular target: human glucagon-like peptide 1 receptor (GLP-1R) (human, UniProt P43220 24-463)

endogenous glucagon receptor of primary rat hepatocytes, sequence (P30082 27-485): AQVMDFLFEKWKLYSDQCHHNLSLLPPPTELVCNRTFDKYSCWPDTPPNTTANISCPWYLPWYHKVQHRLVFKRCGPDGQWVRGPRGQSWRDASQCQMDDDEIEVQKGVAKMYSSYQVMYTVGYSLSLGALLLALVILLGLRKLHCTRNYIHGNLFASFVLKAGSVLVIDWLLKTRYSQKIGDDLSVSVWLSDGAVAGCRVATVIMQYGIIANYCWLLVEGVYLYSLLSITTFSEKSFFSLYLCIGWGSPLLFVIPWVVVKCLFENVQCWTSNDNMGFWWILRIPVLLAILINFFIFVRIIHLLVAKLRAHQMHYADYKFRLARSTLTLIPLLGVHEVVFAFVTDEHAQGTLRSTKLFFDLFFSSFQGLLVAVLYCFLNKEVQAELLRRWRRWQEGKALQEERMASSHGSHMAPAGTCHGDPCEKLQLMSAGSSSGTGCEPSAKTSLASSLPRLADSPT
human glucagon receptor (Glucagon-R), sequence (P47871 26-477): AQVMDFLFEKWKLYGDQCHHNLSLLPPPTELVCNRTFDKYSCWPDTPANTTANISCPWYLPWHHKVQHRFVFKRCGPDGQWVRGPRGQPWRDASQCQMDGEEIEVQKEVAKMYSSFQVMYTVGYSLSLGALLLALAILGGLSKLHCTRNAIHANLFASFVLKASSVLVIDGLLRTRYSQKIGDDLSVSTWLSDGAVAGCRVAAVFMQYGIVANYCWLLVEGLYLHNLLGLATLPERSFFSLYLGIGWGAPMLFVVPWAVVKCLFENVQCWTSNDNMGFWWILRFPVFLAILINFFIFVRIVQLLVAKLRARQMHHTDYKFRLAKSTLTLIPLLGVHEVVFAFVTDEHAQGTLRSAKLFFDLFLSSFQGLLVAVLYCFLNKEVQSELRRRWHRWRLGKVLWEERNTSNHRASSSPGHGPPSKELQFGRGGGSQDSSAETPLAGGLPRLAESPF

B1: Compound 1: H-H-Aib-QGTFTSDYSKYLDERAAKDFIEWLE-K([17-Carboxy-heptadecanoyl]-isoGlu-GSGSGG)-A-NH2 (peptide)
peptide: HAQGTFTSDYSKYLDERAAKDFIEWLEKA
modifications: Aib (alpha-aminoisobutyric acid) at position 2; Lys 28 conjugated via its epsilon amino group to [17-Carboxy-heptadecanoyl]-isoGlu-GSGSGG; C-terminal amide (NH2); free N-terminus (R1 = H)
[1]
  EC50 [nM] (cAMP in murine insulinoma cells): 0.54 nM
[2]
  EC50 [nM] (inhibition of glycogen synthesis rate in primary rat hepatocytes): 5.6 nM
[3]
  EC50 hGCGR CHO-K1 [nM] (cAMP, AlphaScreen): 3.6 nM
[4]
  EC50 hGLP-1R CHO-K1 [nM] (cAMP, AlphaScreen): 0.48 nM
